PMC10172140
One block for each substance: values may come before it.

Key:
[1] = biological target: κ-opioid receptor in homogenous membrane fractions expressing KOR (human) (UniProt P41145)
KOR R156^3.50A (human) = KOR R156^3.50A (human) (UniProt P41145)
[2] = biological target: BRIL-wt-KOR(54–368) reconstituted into nanodiscs (human) (UniProt P41145)
KOR N336^8.49A (human) = KOR N336^8.49A (human) (UniProt P41145)

efficacy of GR89,696-mediated Gg activation, BRET2, normalized to U50,488 [1]: 103% | efficacy of momSalB-mediated Gg activation, BRET2, normalized to U50,488 [1]: 106% | efficacy of GR89,696-mediated Gg activation, BRET2, normalized to U50,488 (KOR R156^3.50A (human)): 46% | efficacy of momSalB-mediated Gg activation, BRET2, normalized to U50,488 (KOR R156^3.50A (human)): 38% | fold increase of the high-affinity binding sites (Bmax) for the agonist radioligand ^3H-U69,593 in saturation binding, with 1 μM G protein against KOR alone [2]: 7 fold
Substance: wild-type Gg (gustducin) heterotrimeric G protein (from UniProt A8MTJ3 1-354; P62873 1-340; P59768 1-71) (complex)

loss in potency of agonist-mediated Gi1 coupling against wild-type KOR, BRET2 (KOR N336^8.49A (human)): 2 fold | fold increase of the high-affinity binding sites (Bmax) for the agonist radioligand ^3H-U69,593 in saturation binding, with 1 μM G protein against KOR alone [2]: 62 fold
Substance: wild-type Gi1 heterotrimeric G protein (from UniProt P63096 1-354; P62873 1-340; P59768 1-71) (complex)

loss in potency of agonist-mediated GoA coupling against wild-type KOR, BRET2 (KOR N336^8.49A (human)): 14 fold | fold increase of the high-affinity binding sites (Bmax) for the agonist radioligand ^3H-U69,593 in saturation binding, with 1 μM G protein against KOR alone [2]: 38 fold
Substance: wild-type GoA heterotrimeric G protein (from UniProt P09471 1-354; P62873 1-340; P59768 1-71) (complex)

loss in potency of agonist-mediated Gz coupling against wild-type KOR, BRET2 (KOR N336^8.49A (human)): 9 fold | fold increase of the high-affinity binding sites (Bmax) for the agonist radioligand ^3H-U69,593 in saturation binding, with 1 μM G protein against KOR alone [2]: 14 fold
Substance: wild-type Gz heterotrimeric G protein (from UniProt P19086 1-355; P62873 1-340; P59768 1-71) (complex)
